From US20240207421A1, “NERVE TARGETING PEPTIDES AND METHODS OF USE” (ALUME BIOSCIENCES, INC., priority 2020, published 2024)

Key:
[1] = target: T1, Human Myelin Basic Protein (Homo sapiens, UniProt P02686); assay: Phage display library screening (Example 1, Power BI analysis), binding to Human Myelin Basic Protein; parameters: Enzo 200-606-M001 from human; purchased Enzo 200-606-M001; host or cells: human brain (tissue-derived); conditions: R3 Myelin Basic Protein, NextGen sequencing count of phage sequences distinct for this target
From the text: (§1) Phage display library screens were used to identify peptides that bind to target proteins that are expressed in human nerves and could therefore be useful for systemic in-vivo labeling of nerves during fluorescence assisted surgery. Specifically, m13 phage libraries expressing 7 or 12 random amino acid peptides, or a cyclic peptide CX7C, on the N-terminus of the minor coat protein pIII (New England Biolabs) were processed through multiple rounds of selection for binding to target proteins expressed in peripheral nerve (Table 1).
(§2) The library was processed through up to 4 binding and wash cycles. For selection, phage libraries were incubated for up to 24 hours at 4° C. in 96 well plates that had been coated with one of the target proteins. Plates were then washed with PBS and phage were eluted using 0.2M glycine pH 2.0. Phage supernatants where then neutralized with Tris pH 9.0 prior to plating on TG1 bacteria and LB agar plates. Colonies were counted to determine titer followed by DNA preparation of pools of phage and NextGen sequencing. After rounds of selection, phage were pooled and amplified for iterative selection. Phage that were bound at each round were sequenced. NextGen sequencing of pools after 2, 3 and 4 rounds of selection was used to isolate candidate sequences that were analyzed further to identify those that specifically bound each unique target protein.
(§3) DNA sequences were trimmed of all vector amino acids and imported as a peptide dataset into Power BI. Power BI was used to identify phage display sequences for specific columns (corresponding to each target protein) in order to identify sequences that were distinct for each protein target. The Power BI code evaluated each individual sequence for each protein target against the sequences present in other protein targets in a test for uniqueness. Using the distinct flag, the Power BI code generated a filtered peptide dataset that excluded any peptide sequence that occur in more than one column which identified a specific protein target. This method therefore identified candidate peptide sequences showing selective binding to an individual target protein. Unique sequences in each column were sorted by individual counts such that the most selected sequences appeared at the top of the column.

Human MPZ [2] = target: T2, Human MPZ (Homo sapiens, UniProt P25189); assay: Phage display library screening (Example 1, Power BI analysis), binding to Human MPZ; conditions: R3 Human MPZ, NextGen sequencing count of phage sequences distinct for this target
T2 construct: purchased Novoprotein (lysate); Bon Opus Biosciences (recombinant protein) NBL1 1321 (lysate); no catalogue number printed for the Bon Opus protein
T2 sequence (P25189 30-248): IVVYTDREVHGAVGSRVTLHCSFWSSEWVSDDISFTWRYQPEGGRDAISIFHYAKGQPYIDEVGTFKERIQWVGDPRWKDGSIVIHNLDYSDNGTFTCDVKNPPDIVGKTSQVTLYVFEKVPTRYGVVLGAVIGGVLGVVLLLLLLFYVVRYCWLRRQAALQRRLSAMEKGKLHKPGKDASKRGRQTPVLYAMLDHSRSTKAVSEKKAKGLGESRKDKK
From the text: as §1, §2, §3

Human MPZ [3] = assay: Phage display library screening (Example 2, Python script analysis), binding to Human MPZ; conditions: combined unique sequence count, Python/R script analysis
Description: Phage display library screens were used to identify peptides that bind to target proteins (including specific laminin trimers) that are expressed in human nerves, as described in Table 3. These screens were also carried out to identify peptides that could bind selectively to nerves versus muscle. Such peptides could therefore be useful for systemic in-vivo labeling of nerves during fluorescence assisted surgery. Specifically, m 13 phage libraries expressing 7 or 12 random amino acid peptides, or a cyclic peptide CX7C, on the N-terminus of the minor coat protein pIII (New England Biolabs; NEB) were processed through multiple rounds of selection for binding to target proteins expressed in nerves, or to excised human nerves, nerve extracts, or muscle, as described further below.
as §2, with “For screening against the specified target proteins in Table 1, including LN211, LN411, LN421, and LN521, the phage” for “The”, “by” for “through”, “TGI” for “TG1”
Python Script Analysis: For all NEB sequence datasets, a python script was used to translate, trim, and filter the peptide sequences. The script translated the nucleotide sequences, translating amber codons as glutamine in peptide sequences, and then trimmed the end sequences that come from the vector. Secondly, the script combined the unique counts of trimmed peptides with identical sequences. […] Another python script was used to group peptides from different assays according to protein target (Myelin Protein Zero, Myelin Proteolipid Protein, Myelin Basic Protein, and Nidogen-2) and also combine the unique sequence counts for each peptide. An R script was written to merge the peptide sequences from different data files and determine peptides specific for each protein target but absent from different protein binding datasets. Peptide sequences were ranked by unique sequence count.

Human Myelin PLP [4] = assay: Phage display library screening (Example 1, Power BI analysis), binding to Human Myelin PLP; conditions: R3 Myelin PLP, NextGen sequencing count of phage sequences distinct for this target
From the text: as §1, §2, §3

Human Myelin PLP [5] = assay: Phage display library screening (Example 2, Python script analysis), binding to Human Myelin PLP; conditions: combined unique sequence count, Python/R script analysis
How it was run: (§4)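 Target protein-coated wells were panned with M13 phage libraries displaying 7- or 12-mer random or cyclic CX7C peptides on pIII, over up to 4 rounds (up to 24 h, 4° C), with glycine pH 2.0 elution. Pools from rounds 2–4 were NextGen-sequenced. Peptides specific to each target were ranked by unique sequence count.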

[6] = target: T1, Human Myelin Basic Protein; assay: Phage display library screening (Example 2, Python script analysis), binding to Human Myelin Basic Protein; parameters: Enzo 200-606-M001 from human; purchased Enzo 200-606-M001; host or cells: human brain (tissue-derived); conditions: R3 Myelin Basic Protein; combined unique sequence count, Python/R script analysis
How it was run: as §4

T1 sequence (P02686 134-304): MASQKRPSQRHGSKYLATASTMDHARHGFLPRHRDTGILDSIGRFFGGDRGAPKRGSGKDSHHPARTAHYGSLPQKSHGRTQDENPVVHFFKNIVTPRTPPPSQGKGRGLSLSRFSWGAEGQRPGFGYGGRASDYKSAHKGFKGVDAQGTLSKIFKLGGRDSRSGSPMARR

For “AGFPPNT (R3 Myelin Basic Protein-binding peptide)”, which Count [1] is on record?
The Count was 10.

With “AGQLMRCANC (R3 Myelin Basic Protein-binding peptide)” as the substance, how does the Count [1] read?
The Count was 12.

How did the Count [1] turn out when “AITSRNA (R3 Myelin Basic Protein-binding peptide)” was run?
The Count was 15.

Which Count (Human MPZ [2]) does the source give for ALPLSAS (R3 Human MPZ-binding peptide) here?
Its Count is 196.

What about the Count (Human MPZ [3]) of the same substance?
The Count was 197.

For ATLKPYR (R3 Myelin PLP-binding peptide), which Count (Human Myelin PLP [4]) is on record?
The Count was 68.

And the Count (Human Myelin PLP [5])?
Its Count is 68.

Which results are given for “AWSTSSV (R3 Myelin Basic Protein-binding peptide)”?
Count [1]: 12; Count [6]: 12

How did the Count [1] turn out when “DGKNTSN (R3 Myelin Basic Protein-binding peptide)” was run?
Its Count is 10.

How did the Count (Human MPZ [2]) turn out when DPITRLK (R3 Human MPZ-binding peptide) was run?
The Count was 92.

And the Count (Human MPZ [3])?
Its Count is 93.

For “DPWVMLR (R3 Myelin Basic Protein-binding peptide)”, which Count [1] is on record?
Its Count is 11.

What about the Count [6] of the same substance?
Its Count is 11.

How did the Count (Human MPZ [2]) turn out when DRNSVFW (R3 Human MPZ-binding peptide) was run?
Its Count is 50.

And the Count (Human MPZ [3])?
The Count was 50.

With DTSRTME (R3 Myelin PLP-binding peptide) as the substance, how does the Count (Human Myelin PLP [4]) read?
Its Count is 33.

What about the Count (Human Myelin PLP [5]) of the same substance?
The Count was 33.

For “EHGYYKV (R3 Myelin Basic Protein-binding peptide)”, which Count [1] is on record?
The Count was 16.

What about the Count [6] of the same substance?
Its Count is 17.

What does the source list for EKPSWTR (R3 Myelin PLP-binding peptide)?
Count (Human Myelin PLP [4]): 33; Count (Human Myelin PLP [5]): 33

Which results are given for ETTRNYG (R3 Human MPZ-binding peptide)?
Count (Human MPZ [2]): 68; Count (Human MPZ [3]): 69

With FKMPIPT (R3 Myelin PLP-binding peptide) as the substance, how does the Count (Human Myelin PLP [4]) read?
Its Count is 34.

What about the Count (Human Myelin PLP [5]) of the same substance?
The Count was 34.

With FPVVTRN (R3 Myelin PLP-binding peptide) as the substance, how does the Count (Human Myelin PLP [4]) read?
Its Count is 42.

“GDERIVRTLSHN (R3 Human MPZ-binding peptide)” was tested. Which Count (Human MPZ [2]) did it give?
Its Count is 47.

Which results are given for GLIRHYT (R3 Myelin PLP-binding peptide)?
Count (Human Myelin PLP [4]): 66; Count (Human Myelin PLP [5]): 66

With GLTPKLF (R3 Human MPZ-binding peptide) as the substance, how does the Count (Human MPZ [2]) read?
Its Count is 48.

With GPFLFTV (R3 Myelin PLP-binding peptide) as the substance, how does the Count (Human Myelin PLP [4]) read?
The Count was 47.

How did the Count (Human MPZ [2]) turn out when GPLRMAT (R3 Human MPZ-binding peptide) was run?
Its Count is 50.

And the Count (Human MPZ [3])?
The Count was 51.

“HPSTWHK (R3 Myelin Basic Protein-binding peptide)” was tested. Which Count [1] did it give?
The Count was 18.

HQGSRTY (R3 Myelin PLP-binding peptide) was tested. Which Count (Human Myelin PLP [4]) did it give?
Its Count is 53.

What about the Count (Human Myelin PLP [5]) of the same substance?
The Count was 53.

For “HRLPWHH (R3 Myelin Basic Protein-binding peptide)”, which Count [1] is on record?
The Count was 10.

What about the Count [6] of the same substance?
The Count was 10.

With IKPPYTH (R3 Human MPZ-binding peptide) as the substance, how does the Count (Human MPZ [2]) read?
The Count was 78.

And the Count (Human MPZ [3])?
The Count was 82.

“ILLPSLN (R3 Myelin Basic Protein-binding peptide)” was tested. Which Count [1] did it give?
Its Count is 13.

With KMAGHTV (R3 Human MPZ-binding peptide) as the substance, how does the Count (Human MPZ [2]) read?
The Count was 51.

What about the Count (Human MPZ [3]) of the same substance?
The Count was 54.

Which results are given for LALYARM (R3 Myelin PLP-binding peptide)?
Count (Human Myelin PLP [4]): 44; Count (Human Myelin PLP [5]): 44

What does the source list for “LPMRILT (R3 Myelin Basic Protein-binding peptide)”?
Count [1]: 16; Count [6]: 16

What does the source list for LRFQIPP (R3 Myelin PLP-binding peptide)?
Count (Human Myelin PLP [4]): 44; Count (Human Myelin PLP [5]): 44

Which Count [1] does the source give for “LRPISHE (R3 Myelin Basic Protein-binding peptide)” here?
Its Count is 12.

What does the source list for LSSPLSL (R3 Human MPZ-binding peptide)?
Count (Human MPZ [2]): 56; Count (Human MPZ [3]): 56

With LTHHFAP (R3 Myelin PLP-binding peptide) as the substance, how does the Count (Human Myelin PLP [4]) read?
The Count was 40.

What about the Count (Human Myelin PLP [5]) of the same substance?
Its Count is 40.

With “MQTQGRV (R3 Myelin Basic Protein-binding peptide)” as the substance, how does the Count [1] read?
The Count was 12.

How did the Count (Human Myelin PLP [4]) turn out when MTPHTSC (R3 Myelin PLP-binding peptide) was run?
Its Count is 62.

For “NDTKTPS (R3 Myelin Basic Protein-binding peptide)”, which Count [1] is on record?
Its Count is 19.

For NPNWRTI (R3 Myelin PLP-binding peptide), which Count (Human Myelin PLP [4]) is on record?
The Count was 34.

And the Count (Human Myelin PLP [5])?
Its Count is 34.

What does the source list for NPSHHPR (R3 Myelin PLP-binding peptide)?
Count (Human Myelin PLP [4]): 37; Count (Human Myelin PLP [5]): 37

How did the Count [1] turn out when “QIGVLPS (R3 Myelin Basic Protein-binding peptide)” was run?
The Count was 11.

“QNTGLKW (R3 Myelin Basic Protein-binding peptide)” was tested. Which Count [1] did it give?
Its Count is 11.

And the Count [6]?
Its Count is 11.

With RFELPAP (R3 Myelin PLP-binding peptide) as the substance, how does the Count (Human Myelin PLP [4]) read?
Its Count is 52.

What about the Count (Human Myelin PLP [5]) of the same substance?
The Count was 52.

For RHNVEFS (R3 Myelin PLP-binding peptide), which Count (Human Myelin PLP [4]) is on record?
Its Count is 42.

And the Count (Human Myelin PLP [5])?
The Count was 42.

Which Count (Human MPZ [2]) does the source give for RVPHSRT (R3 Human MPZ-binding peptide) here?
Its Count is 49.

Which results are given for SAHAKHH (R3 Human MPZ-binding peptide)?
Count (Human MPZ [2]): 51; Count (Human MPZ [3]): 52

How did the Count (Human MPZ [2]) turn out when SHLASRP (R3 Human MPZ-binding peptide) was run?
The Count was 97.

What does the source list for SHSPGNK (R3 Human MPZ-binding peptide)?
Count (Human MPZ [2]): 67; Count (Human MPZ [3]): 79

How did the Count [1] turn out when “SKSDAWR (R3 Myelin Basic Protein-binding peptide)” was run?
Its Count is 14.

What does the source list for “SPDRTSL (R3 Myelin Basic Protein-binding peptide)”?
Count [1]: 12; Count [6]: 12

How did the Count [1] turn out when “SVLRMLN (R3 Myelin Basic Protein-binding peptide)” was run?
The Count was 16.

With TESLFPH (R3 Human MPZ-binding peptide) as the substance, how does the Count (Human MPZ [2]) read?
The Count was 50.

And the Count (Human MPZ [3])?
Its Count is 52.

With TMASPAK (R3 Human MPZ-binding peptide) as the substance, how does the Count (Human MPZ [2]) read?
The Count was 52.

And the Count (Human MPZ [3])?
Its Count is 58.

What does the source list for TSPWELR (R3 Human MPZ-binding peptide)?
Count (Human MPZ [2]): 107; Count (Human MPZ [3]): 108

How did the Count (Human MPZ [2]) turn out when VLKNNPT (R3 Human MPZ-binding peptide) was run?
Its Count is 86.

And the Count (Human MPZ [3])?
Its Count is 87.

How did the Count (Human MPZ [2]) turn out when VLTKPMP (R3 Human MPZ-binding peptide) was run?
Its Count is 56.

And the Count (Human MPZ [3])?
The Count was 56.

Which results are given for WPSISRP (R3 Human MPZ-binding peptide)?
Count (Human MPZ [2]): 57; Count (Human MPZ [3]): 58

Which results are given for “WTMKPNY (R3 Myelin Basic Protein-binding peptide)”?
Count [1]: 13; Count [6]: 14
